System: Recombinant human GST-TDP-43 (N-terminal GST tag, full length), non-phosphorylated
Sequence (chain, as listed by the source): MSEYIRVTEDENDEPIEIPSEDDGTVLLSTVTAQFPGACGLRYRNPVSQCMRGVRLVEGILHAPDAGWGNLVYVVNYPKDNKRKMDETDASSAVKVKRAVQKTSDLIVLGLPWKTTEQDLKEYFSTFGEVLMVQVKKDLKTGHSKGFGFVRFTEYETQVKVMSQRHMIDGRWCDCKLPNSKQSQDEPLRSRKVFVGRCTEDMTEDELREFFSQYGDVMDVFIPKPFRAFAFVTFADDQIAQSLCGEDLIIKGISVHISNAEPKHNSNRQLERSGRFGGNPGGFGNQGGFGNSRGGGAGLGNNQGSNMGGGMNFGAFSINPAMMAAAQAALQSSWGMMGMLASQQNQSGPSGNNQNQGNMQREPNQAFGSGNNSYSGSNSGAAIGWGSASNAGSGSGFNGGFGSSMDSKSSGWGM

recombinant casein kinase 1 (CK1; New England BioLabs, Inc)
in vitro phosphorylation, read by anti-pTDP-43 Western blot: CK1 effectively phosphorylated GST-TDP-43 at S409/S410 in vitro

From patent publication US20100136573
